Where “and” joins values, the source holds several entries; their conditions need not be identical. Identical values can stand only once.
Columns and labels:
Test in all cases: cell-based or functional assay
[1] = target: human voltage-gated sodium channel Nav1.3 (human) (UniProt Q9NY46)
[2] = target: human voltage-gated sodium channel Nav1.7 (human) (UniProt Q15858)
[3] = target: human voltage-gated sodium channel Nav1.5 (human) (UniProt Q14524)
[4] = target: human voltage-gated sodium channel Nav1.4 (human) (UniProt P35499)
[5] = target: hNav1.7 channels in HEK293 cell (human) (UniProt Q15858)
[6] = target: TTX-sensitive Nav channels in mouse DRG neurons
[7] = target: TTX-resistant Nav channels in mouse DRG neurons
[8] = target: human Nav1.5 voltage-gated sodium channel (human) (UniProt Q14524)
[9] = target: human Nav1.7 voltage-gated sodium channel (human) (UniProt Q15858)
[10] = target: human Nav1.8 voltage-gated sodium channel (human) (UniProt Q9Y5Y9)

Sequence of human voltage-gated sodium channel Nav1.5 (human) (Q14524 whole entry): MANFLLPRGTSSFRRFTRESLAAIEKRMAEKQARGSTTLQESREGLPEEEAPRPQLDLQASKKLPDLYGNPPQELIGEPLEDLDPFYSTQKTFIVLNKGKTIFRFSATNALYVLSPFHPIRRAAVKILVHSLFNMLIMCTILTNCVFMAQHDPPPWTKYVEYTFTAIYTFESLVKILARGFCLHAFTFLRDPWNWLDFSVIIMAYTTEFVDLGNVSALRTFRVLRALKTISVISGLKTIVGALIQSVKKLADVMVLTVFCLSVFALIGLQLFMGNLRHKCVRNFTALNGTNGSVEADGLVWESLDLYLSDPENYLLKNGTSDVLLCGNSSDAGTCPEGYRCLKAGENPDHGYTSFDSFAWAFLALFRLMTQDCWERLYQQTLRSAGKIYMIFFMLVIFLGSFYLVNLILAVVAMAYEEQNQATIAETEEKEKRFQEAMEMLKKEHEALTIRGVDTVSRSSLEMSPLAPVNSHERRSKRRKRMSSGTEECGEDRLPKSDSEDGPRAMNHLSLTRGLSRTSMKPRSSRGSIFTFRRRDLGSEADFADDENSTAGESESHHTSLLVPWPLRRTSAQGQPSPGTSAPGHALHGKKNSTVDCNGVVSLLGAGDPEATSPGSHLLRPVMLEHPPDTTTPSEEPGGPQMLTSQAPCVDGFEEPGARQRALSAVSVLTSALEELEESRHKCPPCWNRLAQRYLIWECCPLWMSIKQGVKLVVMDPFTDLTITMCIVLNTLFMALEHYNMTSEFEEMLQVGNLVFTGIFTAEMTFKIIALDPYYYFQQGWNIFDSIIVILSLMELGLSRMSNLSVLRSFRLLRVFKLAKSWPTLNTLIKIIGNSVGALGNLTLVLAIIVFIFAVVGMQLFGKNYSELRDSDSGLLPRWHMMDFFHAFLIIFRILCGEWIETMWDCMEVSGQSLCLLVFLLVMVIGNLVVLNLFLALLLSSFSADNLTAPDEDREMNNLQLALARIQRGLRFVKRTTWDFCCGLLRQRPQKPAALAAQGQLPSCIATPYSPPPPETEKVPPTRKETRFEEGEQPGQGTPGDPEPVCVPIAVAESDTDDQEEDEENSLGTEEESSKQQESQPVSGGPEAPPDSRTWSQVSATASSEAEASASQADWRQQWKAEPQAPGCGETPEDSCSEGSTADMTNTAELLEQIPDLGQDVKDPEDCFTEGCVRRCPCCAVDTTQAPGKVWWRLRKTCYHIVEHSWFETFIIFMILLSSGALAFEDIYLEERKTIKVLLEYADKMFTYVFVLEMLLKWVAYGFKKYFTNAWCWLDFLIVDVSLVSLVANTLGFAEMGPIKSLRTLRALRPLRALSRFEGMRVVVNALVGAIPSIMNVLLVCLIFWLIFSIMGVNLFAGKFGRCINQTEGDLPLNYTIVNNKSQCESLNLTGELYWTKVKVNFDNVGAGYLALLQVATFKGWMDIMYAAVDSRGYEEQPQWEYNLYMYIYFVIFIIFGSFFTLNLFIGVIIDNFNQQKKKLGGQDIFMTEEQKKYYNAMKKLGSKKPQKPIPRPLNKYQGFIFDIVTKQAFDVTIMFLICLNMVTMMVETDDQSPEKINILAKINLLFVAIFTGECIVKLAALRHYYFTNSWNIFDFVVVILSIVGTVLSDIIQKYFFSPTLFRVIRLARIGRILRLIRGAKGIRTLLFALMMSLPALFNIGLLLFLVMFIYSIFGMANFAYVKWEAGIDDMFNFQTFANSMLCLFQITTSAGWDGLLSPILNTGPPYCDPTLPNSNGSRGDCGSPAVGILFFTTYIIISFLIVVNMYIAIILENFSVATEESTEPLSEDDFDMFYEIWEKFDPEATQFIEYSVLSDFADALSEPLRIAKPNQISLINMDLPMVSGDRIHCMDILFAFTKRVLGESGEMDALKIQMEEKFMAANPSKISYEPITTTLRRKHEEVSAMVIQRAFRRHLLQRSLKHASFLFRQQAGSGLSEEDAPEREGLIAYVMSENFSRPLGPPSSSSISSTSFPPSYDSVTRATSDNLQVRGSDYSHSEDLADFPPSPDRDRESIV
Sequence of human voltage-gated sodium channel Nav1.3 (human) (Q9NY46 whole entry): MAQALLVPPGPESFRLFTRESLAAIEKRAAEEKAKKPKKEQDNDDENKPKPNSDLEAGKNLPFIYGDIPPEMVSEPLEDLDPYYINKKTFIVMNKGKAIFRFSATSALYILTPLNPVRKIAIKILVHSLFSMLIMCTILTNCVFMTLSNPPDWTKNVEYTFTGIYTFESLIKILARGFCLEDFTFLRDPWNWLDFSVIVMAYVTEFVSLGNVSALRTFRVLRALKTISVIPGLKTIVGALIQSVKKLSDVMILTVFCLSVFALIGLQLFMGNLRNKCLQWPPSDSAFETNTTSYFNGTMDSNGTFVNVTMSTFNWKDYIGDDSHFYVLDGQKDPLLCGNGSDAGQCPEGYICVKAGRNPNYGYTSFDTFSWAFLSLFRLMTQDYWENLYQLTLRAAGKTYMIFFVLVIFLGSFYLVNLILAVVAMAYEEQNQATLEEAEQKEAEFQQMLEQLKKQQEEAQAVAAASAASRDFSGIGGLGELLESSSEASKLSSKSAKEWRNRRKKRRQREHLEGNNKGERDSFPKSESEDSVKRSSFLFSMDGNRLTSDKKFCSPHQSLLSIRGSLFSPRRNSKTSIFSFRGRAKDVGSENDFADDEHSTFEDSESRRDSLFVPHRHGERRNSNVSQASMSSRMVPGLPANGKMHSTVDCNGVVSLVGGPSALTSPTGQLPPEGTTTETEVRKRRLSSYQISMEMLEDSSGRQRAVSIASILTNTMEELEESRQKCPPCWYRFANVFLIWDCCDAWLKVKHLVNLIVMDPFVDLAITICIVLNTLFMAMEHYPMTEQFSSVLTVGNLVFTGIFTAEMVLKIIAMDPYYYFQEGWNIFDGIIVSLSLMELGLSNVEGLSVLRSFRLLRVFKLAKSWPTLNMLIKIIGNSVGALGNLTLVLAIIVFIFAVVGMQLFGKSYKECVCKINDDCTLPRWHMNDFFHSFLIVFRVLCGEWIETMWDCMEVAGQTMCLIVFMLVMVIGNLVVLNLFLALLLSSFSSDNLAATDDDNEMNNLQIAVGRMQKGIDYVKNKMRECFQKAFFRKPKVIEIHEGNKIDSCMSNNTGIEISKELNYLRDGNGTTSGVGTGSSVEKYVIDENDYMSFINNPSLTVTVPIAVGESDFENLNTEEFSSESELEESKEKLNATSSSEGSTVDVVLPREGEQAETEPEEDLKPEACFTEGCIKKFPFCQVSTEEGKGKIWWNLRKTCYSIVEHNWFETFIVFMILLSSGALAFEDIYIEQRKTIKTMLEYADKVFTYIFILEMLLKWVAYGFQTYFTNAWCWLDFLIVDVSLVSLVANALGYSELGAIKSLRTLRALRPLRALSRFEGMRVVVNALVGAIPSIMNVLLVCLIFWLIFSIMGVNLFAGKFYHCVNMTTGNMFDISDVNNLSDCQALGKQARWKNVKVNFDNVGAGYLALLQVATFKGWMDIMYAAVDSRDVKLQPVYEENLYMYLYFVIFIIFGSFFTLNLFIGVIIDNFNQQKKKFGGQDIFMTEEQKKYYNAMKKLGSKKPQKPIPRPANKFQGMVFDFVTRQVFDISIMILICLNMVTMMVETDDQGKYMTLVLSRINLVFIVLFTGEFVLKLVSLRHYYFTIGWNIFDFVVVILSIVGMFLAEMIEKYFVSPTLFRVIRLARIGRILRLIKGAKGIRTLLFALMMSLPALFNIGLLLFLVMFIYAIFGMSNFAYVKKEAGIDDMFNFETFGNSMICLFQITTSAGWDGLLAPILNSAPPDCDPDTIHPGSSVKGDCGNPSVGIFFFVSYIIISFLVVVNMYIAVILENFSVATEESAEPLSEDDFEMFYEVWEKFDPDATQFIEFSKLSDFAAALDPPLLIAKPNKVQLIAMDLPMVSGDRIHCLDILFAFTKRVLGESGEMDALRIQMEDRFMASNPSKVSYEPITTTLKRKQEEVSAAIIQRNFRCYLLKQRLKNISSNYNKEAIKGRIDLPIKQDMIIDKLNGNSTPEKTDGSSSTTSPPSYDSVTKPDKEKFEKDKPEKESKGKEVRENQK

Substance	IC50 (IonWorks Quattro) [1]	IC50 (IonWorks Quattro) [2]	IC50 (IonWorks Quattro) [3]	IC50 (IonWorks Quattro) [4]	also measured
JzTx-V(1-29)-FreeAcid (peptide)	780 nM	170 nM	> 5000 nM	610 nM	PX hNav1.7 Tonic IC50 [2]: 13.1 nM
[Phe6,Atz(2 kDa EtO-PEG*-[Phe6,Atz13*]GpTx-1(1-34)1)13]GpTx-1(1-34)					Nav1.7 WCPC IC50 [5]: 0.58 nM
JzTx-V(1-29) (peptide)	80 nM and 100 nM	5 nM and 6 nM	3000 nM and 3500 nM		WCPC Mean IC50, fully non-inactivated [6]: 75 nM; WCPC Mean IC50, partially inactivated [6]: 18 nM; WCPC Mean IC50, fully non-inactivated [7]: > 1000 nM; WCPC Mean IC50, partially inactivated [7]: > 1000 nM; IC50, IonWorks Quattro electrophysiology [2]: 0.04 µM; WCPC Mean IC50, fully non-inactivated [8]: 882 nM; WCPC Mean IC50, partially inactivated [8]: 426 nM; WCPC Mean IC50, fully non-inactivated [9]: 0.141 nM; WCPC Mean IC50, partially inactivated [9]: 0.162 nM; IC50, IonWorks Quattro electrophysiology [3]: > 7 µM; IC50, IonWorks Quattro electrophysiology [4]: 0.2 µM; WCPC Mean IC50, fully non-inactivated [10]: 810 nM; WCPC Mean IC50, partially inactivated [10]: 530 nM
JzTx-46 (peptide)	5000 nM	330 nM	> 5000 nM	> 5000 nM	
JzTx-45 (peptide)	1800 nM	84 nM	> 5000 nM	2400 nM	

— US20160024159A1
